Values of other authors, collected in publication PMC3587688.
pKd: −log10 of the molar value.

Molecular target: ephrin-B2 (Homo sapiens) (UniProt P52799)
Sequence (P52799 28-333): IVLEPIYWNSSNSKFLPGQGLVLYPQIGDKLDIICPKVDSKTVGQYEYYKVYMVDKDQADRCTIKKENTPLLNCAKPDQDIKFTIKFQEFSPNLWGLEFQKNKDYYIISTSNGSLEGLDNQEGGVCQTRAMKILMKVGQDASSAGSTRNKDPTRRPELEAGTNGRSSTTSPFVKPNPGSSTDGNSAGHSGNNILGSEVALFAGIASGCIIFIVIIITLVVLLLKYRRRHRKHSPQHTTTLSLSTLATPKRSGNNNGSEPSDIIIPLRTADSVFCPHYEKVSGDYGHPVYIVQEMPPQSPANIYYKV

Sequence of HeV-G (O89343 whole entry): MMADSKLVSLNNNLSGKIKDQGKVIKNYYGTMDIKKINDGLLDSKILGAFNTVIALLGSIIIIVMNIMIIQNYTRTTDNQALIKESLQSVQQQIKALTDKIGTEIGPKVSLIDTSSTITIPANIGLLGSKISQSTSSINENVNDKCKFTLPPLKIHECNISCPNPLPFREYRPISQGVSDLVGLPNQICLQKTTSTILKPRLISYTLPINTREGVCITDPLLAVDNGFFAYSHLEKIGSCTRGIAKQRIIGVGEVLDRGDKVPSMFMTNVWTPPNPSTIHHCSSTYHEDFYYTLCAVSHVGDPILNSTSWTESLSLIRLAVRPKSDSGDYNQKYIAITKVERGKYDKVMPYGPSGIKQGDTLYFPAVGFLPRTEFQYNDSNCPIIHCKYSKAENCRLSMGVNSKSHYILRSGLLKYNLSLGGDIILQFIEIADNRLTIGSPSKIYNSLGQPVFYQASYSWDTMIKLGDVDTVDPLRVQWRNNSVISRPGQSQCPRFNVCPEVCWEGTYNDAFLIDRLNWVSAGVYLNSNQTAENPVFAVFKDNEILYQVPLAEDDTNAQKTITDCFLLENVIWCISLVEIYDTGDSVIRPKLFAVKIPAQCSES

In the case of HeV-G (from UniProt O89343), the pKd is listed as 9.24.
